Reference: article PMC3656785

Legend:
[1] = target: VipB on the GAL4 DNA-binding domain (pGBKT7) (V. cholerae); assay: two-hybrid
[2] = target: VipB fused to the zinc finger DNA-binding domain of murine Zif268; settings: parent: est. 680; read off a plot

Substance	relative β-gal activity [1]	response [2]
VipA D104A fused to the GAL4 activation domain (pGADT7) (natural protein)	92.7%	–
VipA D104A/V106A fused to the GAL4 activation domain (pGADT7) (natural protein)	64.1%	–
VipA D104A/V106A/V110A fused to the GAL4 activation domain (pGADT7) (natural protein)	48.8%	–
VipA V106A fused to the GAL4 activation domain (pGADT7) (natural protein)	92.4%	–
VipA V110A fused to the GAL4 activation domain (pGADT7) (natural protein)	74.6%	–
VipA fused to the GAL4 activation domain (pGADT7) (natural protein)	100%	–
VipA fused to the ω subunit of E. coli RNAP D104A	–	460 Miller units
VipA fused to the ω subunit of E. coli RNAP D104A; V106A	–	230 Miller units
VipA fused to the ω subunit of E. coli RNAP D104A; V106A; V110A	–	120 Miller units
VipA fused to the ω subunit of E. coli RNAP D104A; V106A; V110A; L113A	–	90 Miller units
VipA fused to the ω subunit of E. coli RNAP E112A	–	720 Miller units
VipA fused to the ω subunit of E. coli RNAP L113A	–	490 Miller units
VipA fused to the ω subunit of E. coli RNAP P111A	–	590 Miller units
VipA fused to the ω subunit of E. coli RNAP Q109A	–	630 Miller units
VipA fused to the ω subunit of E. coli RNAP Q109A; V110I	–	710 Miller units
VipA fused to the ω subunit of E. coli RNAP S108A	–	720 Miller units
VipA fused to the ω subunit of E. coli RNAP V106A	–	460 Miller units
VipA fused to the ω subunit of E. coli RNAP V110A	–	430 Miller units
VipA fused to the ω subunit of E. coli RNAP V110A; L113A	–	120 Miller units
